Source: article PMC4004960 (Cancer cell, 2014)
Ends that are not written are not given here.

Target: BRD4-BD2 (recombinant, NMR and fluorescence anisotropy) (UniProt O60885 333-460)
Experiment: fluorescence polarisation

Ki: 800 µM
B1: Twist-K73ac/K76ac peptide (residues 68-79) (peptide, UniProt Q15672 68-79, looked up)
peptide: SPAQGK(Ac)RGK(Ac)KSA
